Test results as given in the supplement of paper PMC10567573.

Assay: protein stability index of a GFP-peptide fusion (GPS, HEK-293T) (PSI 1-6); higher = more stable
Settings: c terminus: native
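Also: lentivirally expressed fusion library, cells FACS-sorted into six equal-sized GFP/DsRed ratio bins, PSI computed from sequencing read fractions per bin weighted by bin number.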

## LPALFTDLYSQEITAEEAREALPW [SNF8 addW]
parent: NP_009172.2
  protein stability index: 3.4

## HSLRAVSTDPPHHDHHDEFCLMPW [BEX2 addW]
parent: NP_116010.1
  protein stability index: 3.48

## DGWIRVSSDNVADLHEKYSGSTPW [PSMB5 addW]
parent: NP_002788.1
  protein stability index: 3.46

## EQRNSRWNTVLRAVKAKTHHLEPW [TRPA1 addW]
parent: NP_015628.1
  protein stability index: 3.58

## CQPISFSGFGAEDDDLGGLGLGPW [POLD2 addW]
parent: NP_006221.1
  protein stability index: 2.02
